# Experimental data from article PMC1277823, “nfi-1 affects behavior and life-span in C. elegans but is not essential for DNA replication or survival”.
# Biological target: hNFI-C220-H6 (human, UniProt P08651 1-220)
# Experiment: EMSA; ~5 ng protein; EMSA on 6.5% non-denaturing polyacrylamide gel (Fig. 2A); buffer, salt, pH and temperature not given (as in cited refs 38, 54)
# Conditions: protein: recombinant; tags: 6xHis; chain copies: 2
# Chain of hNFI-C220-H6 (P08651 1-220): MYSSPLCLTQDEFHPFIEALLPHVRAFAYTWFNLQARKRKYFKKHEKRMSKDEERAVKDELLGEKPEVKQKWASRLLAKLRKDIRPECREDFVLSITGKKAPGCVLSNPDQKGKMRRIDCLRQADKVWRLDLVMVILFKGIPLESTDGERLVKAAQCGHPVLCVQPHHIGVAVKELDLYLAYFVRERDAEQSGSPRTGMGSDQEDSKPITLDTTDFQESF
row,Binder,binding result
1,2.6 (dsDNA) DNA 1: AGGTCTGGCTTTGGGCCAAGAGCCGC DNA 2: GCGGCTCTTGGCCCAAAGCCAGACCT,binds
2,C2 (dsDNA) DNA 1: AGGTCTCGCTTTGGGCCAAGAGCCGC DNA 2: GCGGCTCTTGGCCCAAAGCGAGACCT,no binding
